Measured values from publication PMC549075, “HIV-1 Tat protein enhances Microtubule polymerization” (Retrovirology, 2005).

Key:
[1] = biological target: Lamb brain tubulin (lamb); assay: cell-based or functional assay
[2] = biological target: Lamb brain tubulin (lamb); assay: cell-based or functional assay; remark: listed apart in the source

B1: HIV-1 Tat protein, HxB2 strain (natural protein)
chain: MEPVDPRLEPWKHPGSQPKTACTNCYCKKCCFHCQVCFITKALGISYGRKKRRQRRRAHQNSQTHQASLSKQPTSQPRGDPTGPKE
ΔOD ratio (plateau with 8 μM compound divided by plateau of tubulin alone) [1]: 3.31
fold increase of the turbidity plateau over tubulin alone, 4 μM and 8 μM Tat with 15 μM tubulin [2]: 3.7 fold
